Two molecules from US20200317768A1 (published 2020) can be followed below.

Assay [1] concerns the target T1, cynomolgus monkey FcγRIIIaS extracellular domain, C-terminal His-tag (cynomolgus monkey, UniProt A3RFZ7 21-206 (rhesus entry)).
T1 construct: also called cyno FcγRIIIaS; cynoFcγRIIIaS; not shown: His-tag added to C-terminus
Kind of assay: SPR (BIACORE), antibody captured, FcγR analyte. In general terms: In SPR one partner is held on a chip, and binding of the other changes the refractive index at the surface.

For assay [2], the target named is T2, cynomolgus monkey FcγRIIb extracellular domain, C-terminal His-tag (cynomolgus monkey).
T2 construct: also called cyno FcγRIIb; cynoFcγRIIb; not shown: His-tag added to C-terminus
T2 chain: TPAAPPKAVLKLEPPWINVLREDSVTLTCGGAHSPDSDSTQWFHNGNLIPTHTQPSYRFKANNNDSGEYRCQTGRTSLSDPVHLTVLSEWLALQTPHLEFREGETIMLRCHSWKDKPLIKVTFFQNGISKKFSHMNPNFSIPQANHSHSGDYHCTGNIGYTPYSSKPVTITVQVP
The experiment in a line: SPR (BIACORE), antibody captured, FcγR analyte.

The target of assay [3] is T3, human FcγRIIIaV extracellular domain, C-terminal His-tag (human, UniProt P08637 17-208).
T3 construct: also called FcgRIIIaV; not shown: His-tag added to C-terminus
The experiment in a line: SPR (BIACORE), antibody captured, FcγR analyte.

Assay [4] has as its target T4, cynomolgus monkey FcγRIIa3 extracellular domain, C-terminal His-tag (cynomolgus monkey).
T4 construct: also called cyno FcγRIIa3; cynoFcgRIIa3; not shown: His-tag added to C-terminus
T4 chain: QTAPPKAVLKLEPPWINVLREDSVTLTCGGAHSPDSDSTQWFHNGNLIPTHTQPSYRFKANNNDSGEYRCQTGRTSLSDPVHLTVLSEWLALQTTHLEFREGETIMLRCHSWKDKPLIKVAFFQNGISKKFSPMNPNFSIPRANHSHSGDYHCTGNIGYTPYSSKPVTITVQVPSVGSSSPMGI
The experiment in a line: SPR (BIACORE), antibody captured, FcγR analyte.

For assay [5], the target named is T5, cynomolgus monkey FcγRIIa2 extracellular domain, C-terminal His-tag (cynomolgus monkey).
T5 construct: also called cyno FcγRIIa2; cynoFcgRIIa2; not shown: His-tag added to C-terminus
T5 chain: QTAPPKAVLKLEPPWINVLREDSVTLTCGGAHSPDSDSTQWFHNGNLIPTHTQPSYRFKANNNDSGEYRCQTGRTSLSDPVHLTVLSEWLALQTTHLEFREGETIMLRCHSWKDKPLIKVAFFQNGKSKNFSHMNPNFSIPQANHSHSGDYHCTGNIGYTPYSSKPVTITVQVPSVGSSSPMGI
The experiment in a line: SPR (BIACORE), antibody captured, FcγR analyte.

Assay [6] concerns the target T6, human FcγRIIaH extracellular domain, C-terminal His-tag (human, UniProt P12318 34-217).
T6 construct: also called human FcγRIIa (type H); FcgRIIaH; not shown: His-tag added to C-terminus
T6 sequence: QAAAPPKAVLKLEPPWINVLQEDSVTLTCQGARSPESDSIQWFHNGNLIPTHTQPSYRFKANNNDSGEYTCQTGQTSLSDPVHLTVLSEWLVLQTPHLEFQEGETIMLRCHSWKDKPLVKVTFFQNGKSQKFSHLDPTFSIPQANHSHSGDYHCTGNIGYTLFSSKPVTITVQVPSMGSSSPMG
The experiment in a line: SPR (BIACORE), antibody captured, FcγR analyte.

Assay [7] addresses T7, human FcγRIIaR extracellular domain, C-terminal His-tag (human, UniProt P12318 34-217).
T7 construct: also called human FcγRIIa (type R); FcgRIIaR; not shown: His-tag added to C-terminus
T7 chain: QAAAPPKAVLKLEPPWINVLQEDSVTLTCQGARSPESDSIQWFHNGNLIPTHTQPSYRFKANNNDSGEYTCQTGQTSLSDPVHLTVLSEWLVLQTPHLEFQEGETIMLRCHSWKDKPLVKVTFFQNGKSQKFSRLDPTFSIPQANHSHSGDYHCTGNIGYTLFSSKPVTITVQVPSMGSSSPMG
Kind of assay: SPR (BIACORE), antibody captured, FcγR analyte.

Assay [8] addresses T8, cynomolgus monkey FcγRIIa1 extracellular domain, C-terminal His-tag (cynomolgus monkey).
T8 construct: also called cyno FcγRIIa1; cynoFcgRIIa1; not shown: His-tag added to C-terminus
T8 chain: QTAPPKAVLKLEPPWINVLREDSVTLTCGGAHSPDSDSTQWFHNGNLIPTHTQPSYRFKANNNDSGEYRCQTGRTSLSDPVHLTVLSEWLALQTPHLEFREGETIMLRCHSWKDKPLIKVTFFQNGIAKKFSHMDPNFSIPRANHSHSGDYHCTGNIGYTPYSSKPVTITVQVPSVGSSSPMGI
The experiment in a line: SPR (BIACORE), antibody captured, FcγR analyte.

For assay [9], the target named is T9, human FcγRIIb extracellular domain, C-terminal His-tag (human, UniProt P31994 43-217).
T9 construct: also called humanFcgRIIb; not shown: His-tag added to C-terminus
T9 sequence: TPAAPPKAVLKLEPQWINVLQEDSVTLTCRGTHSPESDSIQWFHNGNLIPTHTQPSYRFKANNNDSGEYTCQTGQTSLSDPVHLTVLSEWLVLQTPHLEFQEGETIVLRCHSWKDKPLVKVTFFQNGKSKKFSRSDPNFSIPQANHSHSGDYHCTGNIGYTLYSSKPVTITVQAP
The experiment in a line: SPR (BIACORE), antibody captured, FcγR analyte.

The target of assay [10] is T1, cynomolgus monkey FcγRIIIaS …. Kind of assay: SPR (BIACORE); KD of parent SG1 / KD of variant.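 Note: relative to parent M103205H795-SG1 carrying the SG1 human heavy chain constant region.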
Assay [11] addresses T2, cynomolgus monkey FcγRIIb extracellular …. The experiment in a line: SPR (BIACORE); KD of parent SG1 / KD of variant.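 Note: relative to parent M103205H795-SG1 carrying the SG1 human heavy chain constant region.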
In assay [12] the target is T3, human FcγRIIIaV extracellular domain, …. Kind of assay: SPR (BIACORE); KD of parent SG1 / KD of variant.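 Note: relative to parent M103205H795-SG1 carrying the SG1 human heavy chain constant region.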
Assay [13] addresses T4, cynomolgus monkey FcγRIIa3 …. Kind of assay: SPR (BIACORE); KD of parent SG1 / KD of variant.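 Note: relative to parent M103205H795-SG1 carrying the SG1 human heavy chain constant region.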
For assay [14], the target named is T5, cynomolgus monkey FcγRIIa2 …. Kind of assay: SPR (BIACORE); KD of parent SG1 / KD of variant.
Assay [15] concerns the target T6, human FcγRIIaH extracellular domain, …. The experiment in a line: SPR (BIACORE); KD of parent SG1 / KD of variant.
For assay [16], the target named is T7, human FcγRIIaR extracellular domain, …. The experiment in a line: SPR (BIACORE); KD of parent SG1 / KD of variant.
Assay [17] concerns the target T8, cynomolgus monkey FcγRIIa1 …. Kind of assay: SPR (BIACORE); KD of parent SG1 / KD of variant.
Assay [18] has as its target T9, human FcγRIIb extracellular domain, …. Kind of assay: SPR (BIACORE); KD of parent SG1 / KD of variant.

T1 sequence (A3RFZ7 21-206): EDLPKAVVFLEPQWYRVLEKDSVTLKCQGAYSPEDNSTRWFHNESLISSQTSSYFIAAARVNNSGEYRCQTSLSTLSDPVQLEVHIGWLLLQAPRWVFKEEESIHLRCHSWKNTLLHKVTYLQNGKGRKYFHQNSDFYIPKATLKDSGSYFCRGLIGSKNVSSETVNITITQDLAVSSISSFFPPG
T3 sequence (P08637 17-208 F176V): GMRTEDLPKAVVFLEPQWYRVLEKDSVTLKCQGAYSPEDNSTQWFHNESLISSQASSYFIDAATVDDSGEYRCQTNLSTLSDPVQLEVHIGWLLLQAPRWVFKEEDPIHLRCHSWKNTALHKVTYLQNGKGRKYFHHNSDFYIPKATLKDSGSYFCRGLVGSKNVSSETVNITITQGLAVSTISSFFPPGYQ

B1: M103240H795-SG1071 / M103202L1045-SK1 (antibody)
heavy: QVQLVESGGGLVQPGGSLRLSCAVSGIDLSHDDISWVRQAPGKGLEWVSIISYAGSTYYASWAKGRLTISKDTSKNQVVLTMTNMDPVDTATYYCARGVPAYSHGGDLWGQGTLVTVSSASTKGPSVFPLAPSSKSTSGGTAALGCLVKDYFPEPVTVSWNSGALTSGVHTFPAVLQSSGLYSLSSVVTVPSSSLGTQTYICNVNHKPSNTKVDKKVEPKSCDKTHTCPPCPAPELLNGPSVFLFPPKPKDTLMISRTPEVTCVVVDVSDEDPEVKFNWYVDGVEVHNAKTKPREELYNSTYRVVSVLTVLHRDWLNGKEYKCKVSNKALPKPIEKTISKAKGQPREPQVYTLPPSREEMTKNQVSLTCLVKGFYPSDIAVEWESNGQPENNYKTTPPVLDSDGSFFLYSKLTVKKSRWQQGNVFSCSVLHEALHAHTTRKELSLSP
light: DIVMTQSPATLSLSPGERATLSCTTSQSVYHENWLSWFQQKPGQPPKLLIYWASTLAYGVPSRFSGSGSGTDFTLTISSLQPEDAATYYCAGGYGGGRYAFGQGTKVEIKRTVAAPSVFIFPPSDEQLKSGTASVVCLLNNFYPREAKVQWKVDNALQSGNSQESVTEQDSKDSTYSLSSTLTLSKADYEKHKVYACEVTHQGLSSPVTKSFNRGEC
notes: CH with G236N/H268D/Q295L/Q311R/A330K/D413K/M428L/N434A/Y436T/Q438R/S440E against SG1 (EU numbering); also called MS1032LO19-SG1071
The term Kd denotes the free concentration of one partner at which half of the binding sites on the other are occupied at equilibrium, for simple one-to-one binding. In the case of B1, the equilibrium dissociation constant (Kd) in [1] is 5800 nM; in assay [2] it was 530 nM; in assay [3] it was 14000 nM; in [4] it was 2100 nM; in assay [5], 1500 nM; in assay [6], 690 nM. The Kd was 1200 nM in assay [7], 1200 nM in assay [8] and 680 nM in assay [9]. Also, the “KD fold (SG1 = 1)” value in [10] stood at 0.07 fold; in assay [11], 5.3 fold; in assay [12] it was 0.04 fold; in [13] it was 3.1 fold; in assay [14] it was 3.2 fold; in [15], 1.4 fold. Moreover, the “KD fold (SG1 = 1)” value in assay [16] was found to be 0.8 fold; in [17], 3 fold; in assay [18], 5.6 fold.

B2: M103240H795-SG1074 / M103202L1045-SK1 (antibody)
heavy: QVQLVESGGGLVQPGGSLRLSCAVSGIDLSHDDISWVRQAPGKGLEWVSIISYAGSTYYASWAKGRLTISKDTSKNQVVLTMTNMDPVDTATYYCARGVPAYSHGGDLWGQGTLVTVSSASTKGPSVFPLAPSSKSTSGGTAALGCLVKDYFPEPVTVSWNSGALTSGVHTFPAVLQSSGLYSLSSVVTVPSSSLGTQTYICNVNHKPSNTKVDKKVEPKSCDKTHTCPPCPAPELLNGPSVFLFPPKPKDTLMISRTPEVTCVVVDVSDEDPEVKFNWYVDGVEVHNAKTKPREELYNSTYRVVSVLTVLHRDWLNGKEYKCKVSNTALPKPIEKTISKAKGQRREPQVYTLPPSREEMTKNQVSLTCLVKGFYPSDIAVEWESNGQPENNYKTTPPVLDSDGSFFLYSKLTVDKSRWQQGNVFSCSVLHEALHAHTTRKELSLSP
light: DIVMTQSPATLSLSPGERATLSCTTSQSVYHENWLSWFQQKPGQPPKLLIYWASTLAYGVPSRFSGSGSGTDFTLTISSLQPEDAATYYCAGGYGGGRYAFGQGTKVEIKRTVAAPSVFIFPPSDEQLKSGTASVVCLLNNFYPREAKVQWKVDNALQSGNSQESVTEQDSKDSTYSLSSTLTLSKADYEKHKVYACEVTHQGLSSPVTKSFNRGEC
notes: CH with G236N/H268D/Q295L/Q311R/K326T/A330K/P343R/M428L/N434A/Y436T/Q438R/S440E against SG1 (EU numbering); also called MS1032LO19-SG1074
Turning to B2, the dissociation constant (Kd) was found to be 1400 nM in [1]; 160 nM in assay [2]; 4500 nM in [3]; 1100 nM in assay [4]; 680 nM in [5]; 450 nM in assay [6]. The results for the Kd in assay [7], in [8] and in assay [9] were 540 nM, 700 nM and 380 nM, respectively. Also, the “KD fold (SG1 = 1)” value worked out at 0.19 fold in [10]; 11.1 fold in [11]; 0.18 fold in [12]; 6.2 fold in assay [13]; 6.1 fold in [14]; 2.2 fold in assay [15]. The “KD fold (SG1 = 1)” value in [16] was 1.8 fold; in [17] it was 5.4 fold; in assay [18], 10.2 fold.
